# Reference: patent US5837813
# Columns and labels:
# [1] = target: human fibronectin (human) (UniProt P02751); assay: solid-phase competition, 125I-fibronectin on coated fibronectin
# [2] = target: human fibronectin (human) (UniProt P02751)
# [3] = target: human fibronectin (human) (UniProt P02751); assay: solid-phase competition, 125I-14 kDa fragment on coated fibronectin
binder,measurement,setting,value
LISIQQYGHQEVTRFDFTTTSTSTPVTSNTV [polypeptide P3],IC50,[1],200 to 300 µM
same,^125 I-fibronectin bound to IMR-90 cells after one hour,[2],25%
same,fold less potent than P1,[3],100 fold
